Patent publication US20220177587A1, “METHODS AND USES OF VARIANT CD80 FUSION PROTEINS AND RELATED CONSTRUCTS” (Alpine Immune Sciences, Inc., priority 2018, published 2022)

How the values were obtained:
[1] = biological target: CD28 (human) (UniProt P10747); experiment: flow cytometry, Jurkat cells (CD28)
[2] = biological target: human CTLA-4 (human) (UniProt P16410); experiment: flow cytometry, CHO cells stably expressing CTLA4
[3] = biological target: PD-L1 (human) (UniProt Q9NZQ7); experiment: flow cytometry, CHO cells stably expressing PD-L1
Target sequence in this assay (Q9NZQ7 19-290): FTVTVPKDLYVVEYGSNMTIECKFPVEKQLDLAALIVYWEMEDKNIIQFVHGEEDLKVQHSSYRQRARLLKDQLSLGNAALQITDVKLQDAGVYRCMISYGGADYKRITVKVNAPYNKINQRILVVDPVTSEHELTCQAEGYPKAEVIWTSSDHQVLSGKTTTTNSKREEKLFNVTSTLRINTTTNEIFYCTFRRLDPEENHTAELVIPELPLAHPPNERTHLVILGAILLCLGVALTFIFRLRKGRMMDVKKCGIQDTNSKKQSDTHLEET

[4] = biological target: human CTLA-4 (human) (UniProt P16410); experiment: flow cytometry, CHO cells expressing CTLA4
[5] = biological target: PD-L1 (human) (UniProt Q9NZQ7); experiment: flow cytometry, CHO cells expressing PD-L1
Target sequence in this assay (Q9NZQ7 19-290): as above

[6] = biological target: PD-L1 (human) (UniProt Q9NZQ7); experiment: flow cytometry, CHO cells expressing huPD-L1
[7] = biological target: human CTLA-4 (human) (UniProt P16410); experiment: flow cytometry, CHO cells expressing huCTLA-4
[8] = biological target: CD28 (human) (UniProt P10747)
[9] = biological target: CD28 (human) (UniProt P10747); experiment: flow cytometry, Jurkat/IL2 reporter cells (CD28)
[10] = biological target: CD28 (human) (UniProt P10747); remark: listed apart in the source

Sequence of human CTLA-4 (human) (P16410 36-223): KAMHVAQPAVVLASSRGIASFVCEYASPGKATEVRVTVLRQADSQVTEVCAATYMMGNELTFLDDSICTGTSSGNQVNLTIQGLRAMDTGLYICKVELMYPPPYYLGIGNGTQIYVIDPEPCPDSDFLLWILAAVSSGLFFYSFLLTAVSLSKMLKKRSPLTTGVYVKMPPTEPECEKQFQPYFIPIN
Sequence of wild-type CD80 IgV-Fc (inert), as in Example 12 (Fc fusion) (chain): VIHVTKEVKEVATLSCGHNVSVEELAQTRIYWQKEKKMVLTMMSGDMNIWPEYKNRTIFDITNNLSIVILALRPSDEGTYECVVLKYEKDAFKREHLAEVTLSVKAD
Sequence of wild-type CD80 IgV (SEQ ID NO: 150)-Fc (inert) with GSG4S linker (Fc fusion) (chain): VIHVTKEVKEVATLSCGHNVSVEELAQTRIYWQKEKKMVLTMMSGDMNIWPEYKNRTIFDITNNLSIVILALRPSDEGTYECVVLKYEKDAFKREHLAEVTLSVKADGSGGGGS

Substance: CD80 (S21P/L70Q/D90G/I118V/T120S/T130A) ECD-Fc (Fc fusion)
- MFI at 66.7 nM [1]: 282
- EC50 [2]: 8.8 nM
- MFI at 66.7 nM [3]: 103

Substance: CD80 T13R/Q33R/E35D/M38I/M47L/V68M IgV-Fc (Fc fusion)
- MFI at 33.3 nM [1]: 13.8 MFI
- MFI at 33.3 nM [4]: 193 MFI
- Fold change to WT CD80 [5]: 87 fold
- MFI at 33.3 nM [5]: 4480 MFI

Substance: variant CD80 IgV-Fc (inert) A26P/E35D/M47I/V68M/A71G/D90G (Fc fusion)
- MFI at 33.3 nM [1]: 8190 MFI
- MFI at 33.3 nM [2]: 19800 MFI

Substance: variant CD80 IgV-Fc D46V/M47L (Fc fusion)
- MFI at 33.3 nM [6]: 3900 MFI
- MFI at 33.3 nM [7]: 49700 MFI

Substance: CD80 T13R/Q33L/E35D/M47L/V68M/L85M IgV-Fc (Fc fusion)
- Fold change to WT CD80 [1]: 0.5 fold
- MFI at 33.3 nM [1]: 15.7 MFI
- MFI at 33.3 nM [4]: 141 MFI
- Fold change to WT CD80 [5]: 62.7 fold
- MFI at 33.3 nM [5]: 3230 MFI

Substance: CD80 E35D/M43L/L70M IgV-Fc (inert) (Fc fusion)
- Jurkat/IL2 reporter RLU at 50 nM, CHO/OKT3 aAPC without PD-L1 [8]: 515 RLU

Substance: variant CD80 IgV-Fc E35D/V68M/K89N (Fc fusion)
- MFI at 33.3 nM [7]: 24800 MFI

Substance: variant CD80 IgV-Fc M47V/N48K/V68M/K89N (Fc fusion)
- MFI at 33.3 nM [6]: 23700 MFI

Substance: variant CD80 IgV-Fc E35D/D46V/M47L/V68M (Fc fusion)
- MFI at 33.3 nM [6]: 29300 MFI
- MFI at 33.3 nM [7]: 34300 MFI

Substance: variant CD80 IgV-Fc E35D/D46V/M47V/V68M/K89N (Fc fusion)
- MFI at 33.3 nM [6]: 21600 MFI
- MFI at 33.3 nM [9]: 2120 MFI

Substance: variant CD80 IgV-Fc (inert) H18F/A26H/E35D/M47L/V68M/A71G/D90G (Fc fusion)
- MFI at 33.3 nM [1]: 8390 MFI
- MFI at 33.3 nM [2]: 16400 MFI
- MFI at 33.3 nM [3]: 20700 MFI

Substance: WT CD80 IgV-Fc (effector) (Fc fusion)
- IL-2 release, primary T cells + K562/OKT3 (No PD-L1), 100 nM [10]: 6200

Substance: variant CD80 IgV-Fc D46V/M47L/V68M/L85Q (Fc fusion)
- MFI at 33.3 nM [6]: 29700 MFI
- MFI at 33.3 nM [7]: 32500 MFI

Substance: CD80 T13R/Q33L/E35D/M47V/T62S/V68M/L85M IgV-Fc (Fc fusion)
- Fold change to WT CD80 [1]: 0.5 fold
- MFI at 33.3 nM [1]: 16 MFI
- MFI at 33.3 nM [4]: 105 MFI
- Fold change to WT CD80 [5]: 77 fold
- MFI at 33.3 nM [5]: 3970 MFI

Substance: CD80 (E88D/K89R/D90K/A91G/F92Y/K93R) ECD-Fc (Fc fusion)
- MFI at 66.7 nM [1]: 4050
- EC50 [2]: 3.6 nM
- MFI at 66.7 nM [2]: 26400
- MFI at 66.7 nM [3]: 108

Substance: CD80 (A91G/I118V/T120S/T130A) ECD-Fc (Fc fusion)
- MFI at 66.7 nM [1]: 720
- EC50 [2]: 4.3 nM
- MFI at 66.7 nM [2]: 24800
- MFI at 66.7 nM [3]: 107

Substance: CD80 E35D/D46V/M47L/V68M/L85Q/E88D IgV-Fc, GS(G4S)3 linker (Fc fusion)
- MFI at 33.3 nM [1]: 267 MFI
- MFI at 33.3 nM [3]: 22600 MFI

Substance: WT CD80 ECD-Fc (effector) (Fc fusion)
- IL-2 release, primary T cells + K562/OKT3 (No PD-L1), 100 nM [10]: 23100
- IL-2 release, primary T cells + K562/OKT3/PD-L1, 100 nM [10]: 8390

Substance: variant CD80 IgV-Fc E35D/N48K/V68M/K89N (Fc fusion)
- MFI at 33.3 nM [6]: 17400 MFI
- MFI at 33.3 nM [9]: 1530 MFI

Substance: variant CD80 IgV-Fc E35D/D46V/V68M/L85Q (Fc fusion)
- MFI at 33.3 nM [6]: 23600 MFI
- MFI at 33.3 nM [7]: 32200 MFI

Substance: variant CD80 IgV-Fc (inert) H18V/A26R/E35D/M47L/V68M/A71G/D90G (Fc fusion)
- MFI at 33.3 nM [1]: 9620 MFI
- MFI at 33.3 nM [2]: 23200 MFI
- MFI at 33.3 nM [3]: 73200 MFI

Substance: wild-type CD80 IgV (SEQ ID NO: 150)-Fc (inert) with GSG4S linker (Fc fusion)
- MFI at 33.3 nM [3]: 47 MFI

Substance: wild-type CD80 IgV-Fc (inert), as in Example 12 (Fc fusion)
- MFI at 33.3 nM [1]: 102 MFI
- MFI at 33.3 nM [2]: 1380 MFI
- MFI at 33.3 nM [3]: 165 MFI

Substance: CD80 E35D/D46E/M47L/V68M/T79M/L85M/L97Q IgV-Fc (Fc fusion)
- Fold change to WT CD80 [1]: 0.5 fold
- MFI at 33.3 nM [1]: 14 MFI
- MFI at 33.3 nM [4]: 96 MFI
- Fold change to WT CD80 [5]: 89.7 fold
- MFI at 33.3 nM [5]: 4620 MFI

Substance: CD80 IgV-Fc Q33R/M47V/T62N/A71G (Fc fusion)
- MFI at 33.3 nM [2]: 308 MFI
- MFI at 33.3 nM [3]: 12200 MFI

Substance: CD80 H18Y/E35D/M38I/M47L/V68M/L85M IgV-Fc (Fc fusion)
- Fold change to WT CD80 [1]: 0.5 fold
- MFI at 33.3 nM [1]: 16.7 MFI
- MFI at 33.3 nM [4]: 139 MFI
- Fold change to WT CD80 [5]: 69.7 fold
- MFI at 33.3 nM [5]: 3590 MFI

Substance: WT CD80 ECD-Fc (Abcam) (from UniProt P33681) (Fc fusion)
- MFI at 33.3 nM [6]: 128 MFI
- MFI at 33.3 nM [9]: 709 MFI

Substance: variant CD80 IgV-Fc E35D/M47V/V68M (Fc fusion)
- MFI at 33.3 nM [6]: 16600 MFI

Substance: CD80 IgV-Fc deltaE10-A98 (Fc fusion)
- MFI at 33.3 nM [1]: 15 MFI
- MFI at 33.3 nM [2]: 125 MFI
- MFI at 33.3 nM [3]: 45 MFI
